Consider 2 molecules from article PMC6155126.

The target in data set [1] is Ku70/80 (Ku70 subunit);Ku70/80 (Ku80 subunit);Pol λ WT (Homo sapiens;Homo sapiens;Homo sapiens, UniProt P12956;P13010;Q9UGP5 1-609;1-732;1-575, ||). Put plainly: EMSA supershift; 20 nM Ku; EMSA: 50 mM Tris-HCl pH 7.5, 100 mM KCl, 2.5 mM MgCl2, 1 mM DTT, 4% glycerol, 0.05% Triton X-100, 0.1 mg/ml BSA, 10-20 nM DNA, 30 min at 25 °C; 4-5% native PAGE, 0.5x TBE, 4 °C. To be noted: protein: recombinant;recombinant;recombinant; tags: FLAG;FLAG;FLAG; copies: 1;1;1; label: 5' IRDye 700 on one strand; 5-nt gap. Background: In EMSA bound probe runs differently from free probe, usually more slowly.

Data set [2] deals with Ku70/80 (Ku70 subunit);Ku70/80 (Ku80 subunit);PAXX (cleaved) (Homo sapiens;Homo sapiens;Homo sapiens, UniProt P12956;P13010;Q9BUH6 1-609;1-732;1-204, ||). The data set can be described thus: EMSA supershift; 20 nM Ku, 0.5 µM PAXX; EMSA: 50 mM Tris-HCl pH 7.5, 100 mM KCl, 2.5 mM MgCl2, 1 mM DTT, 4% glycerol, 0.05% Triton X-100, 0.1 mg/ml BSA, 10-20 nM DNA, 30 min at 25 °C; 4-5% native PAGE, 0.5x TBE, 4 °C. To be noted: protein: recombinant;recombinant;recombinant; tags: FLAG;FLAG;GST tag cleaved (PreScission); copies: 1;1;2; label: 5' IRDye 700 on one strand; 5-nt gap.

The target in data set [3] is Ku70/80 (Ku70 subunit);Ku70/80 (Ku80 subunit);Pol λ WT;PAXX (cleaved) (Homo sapiens;Homo sapiens;Homo …, UniProt P12956;P13010;Q9UGP5;Q9BUH6 1-609;1-732;1-575;1-204, |||). The description is as above. The settings on record: protein: recombinant;recombinant;recombinant;recombinant; tags: FLAG;FLAG;FLAG;GST tag cleaved (PreScission); copies: 1;1;1;2; label: 5' IRDye 700 on one strand; 5-nt gap.

Data set [4] has as its target Ku70/80 (Ku70 subunit);Ku70/80 (Ku80 subunit);Pol λ R57A/L60A (RL) (Homo sapiens;Homo sapiens;Homo sapiens, UniProt P12956;P13010;Q9UGP5 1-609;1-732;1-575, ||R57A;L60A). Put plainly: EMSA supershift; 20 nM Ku, 50 nM Pol λ-RL; mutant does not join DNA-bound Ku; EMSA: 50 mM Tris-HCl pH 7.5, 100 mM KCl, 2.5 mM MgCl2, 1 mM DTT, 4% glycerol, 0.05% Triton X-100, 0.1 mg/ml BSA, 10-20 nM DNA, 30 min at 25 °C; 4-5% native PAGE, 0.5x TBE, 4 °C. The settings on record: protein: recombinant;recombinant;recombinant, tags: FLAG;FLAG;FLAG, copies: 1;1;1, label: IRDye 700 at 5' end of S5, 5-nt gap (CTATT of S4 unpaired), blunt outer ends.

Sequence of Ku70/80 (Ku70 subunit);Ku70/80 (Ku80 subunit);Pol λ WT (P12956 whole entry, chain 1 of 3): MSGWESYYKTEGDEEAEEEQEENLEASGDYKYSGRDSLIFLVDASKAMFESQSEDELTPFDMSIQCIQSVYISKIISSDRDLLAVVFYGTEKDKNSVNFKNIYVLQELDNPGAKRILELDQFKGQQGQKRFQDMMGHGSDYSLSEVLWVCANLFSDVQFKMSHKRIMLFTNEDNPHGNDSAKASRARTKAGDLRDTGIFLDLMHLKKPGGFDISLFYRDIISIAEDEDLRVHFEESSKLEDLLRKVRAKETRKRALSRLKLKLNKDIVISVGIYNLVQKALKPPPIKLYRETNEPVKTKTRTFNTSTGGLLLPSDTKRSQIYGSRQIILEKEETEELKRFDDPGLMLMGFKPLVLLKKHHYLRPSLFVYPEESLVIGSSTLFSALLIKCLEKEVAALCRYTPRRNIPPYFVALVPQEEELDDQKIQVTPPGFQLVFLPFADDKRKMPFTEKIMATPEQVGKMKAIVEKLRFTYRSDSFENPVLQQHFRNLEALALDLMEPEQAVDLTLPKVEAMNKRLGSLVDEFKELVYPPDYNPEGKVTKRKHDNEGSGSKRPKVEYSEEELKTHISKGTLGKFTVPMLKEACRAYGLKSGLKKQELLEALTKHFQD
Sequence of Ku70/80 (Ku70 subunit);Ku70/80 (Ku80 subunit);Pol λ WT (P13010 whole entry, chain 2 of 3): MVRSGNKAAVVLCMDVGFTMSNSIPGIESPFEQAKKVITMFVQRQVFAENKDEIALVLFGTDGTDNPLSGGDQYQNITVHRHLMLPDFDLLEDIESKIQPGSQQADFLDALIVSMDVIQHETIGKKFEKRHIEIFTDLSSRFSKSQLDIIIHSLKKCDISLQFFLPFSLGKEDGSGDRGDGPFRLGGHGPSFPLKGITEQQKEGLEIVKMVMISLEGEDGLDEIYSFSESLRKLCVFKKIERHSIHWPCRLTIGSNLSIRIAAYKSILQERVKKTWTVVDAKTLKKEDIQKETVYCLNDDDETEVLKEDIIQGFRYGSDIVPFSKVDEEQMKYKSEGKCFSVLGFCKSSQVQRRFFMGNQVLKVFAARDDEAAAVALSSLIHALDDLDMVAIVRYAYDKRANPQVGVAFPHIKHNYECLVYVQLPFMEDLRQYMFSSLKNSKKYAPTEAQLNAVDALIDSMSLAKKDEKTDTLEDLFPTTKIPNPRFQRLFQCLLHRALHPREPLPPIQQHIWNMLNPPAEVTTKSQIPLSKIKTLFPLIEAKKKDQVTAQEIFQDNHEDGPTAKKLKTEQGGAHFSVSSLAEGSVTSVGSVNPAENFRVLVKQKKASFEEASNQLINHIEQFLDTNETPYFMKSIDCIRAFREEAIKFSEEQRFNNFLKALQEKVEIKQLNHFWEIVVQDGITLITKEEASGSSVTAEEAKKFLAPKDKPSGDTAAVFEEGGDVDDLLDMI
Sequence of Ku70/80 (Ku70 subunit);Ku70/80 (Ku80 subunit);Pol λ WT (Q9UGP5 whole entry, chain 3 of 3): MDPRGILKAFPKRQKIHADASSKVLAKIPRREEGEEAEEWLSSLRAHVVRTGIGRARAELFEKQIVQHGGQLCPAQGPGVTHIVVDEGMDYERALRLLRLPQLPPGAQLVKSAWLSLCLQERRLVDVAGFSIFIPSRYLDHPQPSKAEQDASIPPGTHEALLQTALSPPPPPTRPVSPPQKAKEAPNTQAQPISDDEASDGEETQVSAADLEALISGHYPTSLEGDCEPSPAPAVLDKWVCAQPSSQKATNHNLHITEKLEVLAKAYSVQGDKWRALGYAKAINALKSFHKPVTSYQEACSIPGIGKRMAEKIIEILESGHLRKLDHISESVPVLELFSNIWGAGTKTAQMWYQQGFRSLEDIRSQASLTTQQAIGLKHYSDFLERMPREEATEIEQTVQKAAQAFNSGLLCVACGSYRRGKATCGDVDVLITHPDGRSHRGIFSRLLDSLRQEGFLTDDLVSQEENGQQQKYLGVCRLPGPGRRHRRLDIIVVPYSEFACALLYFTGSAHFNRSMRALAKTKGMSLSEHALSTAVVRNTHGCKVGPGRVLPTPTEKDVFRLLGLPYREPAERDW
Sequence of Ku70/80 (Ku70 subunit);Ku70/80 (Ku80 subunit);Pol λ R57A/L60A (RL) (P12956 whole entry, chain 1 of 3): as the sequence (P12956 whole entry, chain 1 of 3) above
Sequence of Ku70/80 (Ku70 subunit);Ku70/80 (Ku80 subunit);Pol λ R57A/L60A (RL) (P13010 whole entry, chain 2 of 3): as the sequence (P13010 whole entry, chain 2 of 3) above
Sequence of Ku70/80 (Ku70 subunit);Ku70/80 (Ku80 subunit);Pol λ R57A/L60A (RL) (Q9UGP5 whole entry R57A/L60A, chain 3 of 3): as the sequence (Q9UGP5 whole entry, chain 3 of 3) above, with R57A, L60A counted along it

B1: 5nt-gapped dsDNA 30-mer (dsDNA)
DNA 1: ACTGGCCGTCGTTCTATTGTACTCACTGTGATC
DNA 2: GATCACAGTGAGTAC
DNA 3: AACGACGGCCAGT
For the molecule B1, the binding result in data set [1], in data set [2] and in data set [3] was “binds” in each case.

B2: 5nt-gapped dsDNA 33-mer (dsDNA)
DNA 1: B1 DNA 1
DNA 2: GATCACAGTGAGTAC
DNA 3: AACGACGGCCAGT
modifications: 5'-phosphate on the 13-mer
For the molecule B2, the binding result in data set [4] was “no binding”.
